From patent US20050119205A1, “Methods of modulating heme oxygenase-1 expression and treating heme oxygenase-1 mediated conditions” (published 2005)

Columns and labels:
[1] = molecular target: T1, heme oxygenase-1 (hHO-1), E. coli expressed (Homo sapiens, UniProt P09601 P09601:1-288); experiment: EMSA; specificity control; settings: label: 32P 5'
T1 sequence: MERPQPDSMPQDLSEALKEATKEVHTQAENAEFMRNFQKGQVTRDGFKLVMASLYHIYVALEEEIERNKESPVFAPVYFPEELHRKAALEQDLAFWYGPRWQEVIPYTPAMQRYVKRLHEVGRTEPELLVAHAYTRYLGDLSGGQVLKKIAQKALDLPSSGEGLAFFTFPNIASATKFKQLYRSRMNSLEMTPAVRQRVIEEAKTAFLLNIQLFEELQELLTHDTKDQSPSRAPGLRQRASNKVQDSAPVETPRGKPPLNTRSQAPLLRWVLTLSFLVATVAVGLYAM

[2] = molecular target: T2, hBVR K143A (Homo sapiens, UniProt P53004 SEQ:1-296, K143A); experiment: EMSA; background signal only; settings: tags: rabbit reticulocyte lysate; chain copies: 2; label: 32P 5'
T2 sequence: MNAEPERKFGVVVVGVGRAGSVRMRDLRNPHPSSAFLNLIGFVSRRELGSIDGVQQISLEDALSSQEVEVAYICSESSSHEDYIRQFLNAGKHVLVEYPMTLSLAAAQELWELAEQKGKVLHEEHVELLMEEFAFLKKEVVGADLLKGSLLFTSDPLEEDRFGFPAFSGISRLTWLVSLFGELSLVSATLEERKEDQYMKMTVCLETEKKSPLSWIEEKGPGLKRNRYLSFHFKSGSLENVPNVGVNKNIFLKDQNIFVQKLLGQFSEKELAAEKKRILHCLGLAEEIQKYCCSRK
Experimental: (§1) As with native gel analysis, in vitro translated proteins were assayed for DNA binding immediately after synthesis. 1 μl of translated material was added to 5000-500,000 cpm of [³²P]-labeled DNA fragment representing approximately 2-3 ng of DNA. 0.1 μg of poly (dI•dC) in 10 μl of DNA binding buffer was added to the labeled DNA. After incubating samples for 20 min at room temperature, 5 μl loading buffer was added. The samples were resolved on 12% native polyacrylamide gel with 35 m Amp at 4° C. The gels were processed as described above. Dried gels were put on two pieces of film separated by a piece of paper. Autoradiography was done at −70° C. for different time periods.
(§2) For this set of experiments, the [³⁵S] methionine-labeled mutant BVR proteins were generated by in vitro translation and assayed on a 12% native gel for detection of the ˜69 kDa protein band and analysis of DNA for complex formation. The 100-mer DNA fragment with two AP-1 sites or without an AP-1 site were used. On the native gel the high molecular weight band was not detected with the mutated proteins.

[3] = molecular target: T3, hBVR L150A (Homo sapiens, UniProt P53004 SEQ:1-296, L150A); experiment: EMSA; background signal only; settings: tags: rabbit reticulocyte lysate; chain copies: 2; label: 32P 5'
T3 sequence: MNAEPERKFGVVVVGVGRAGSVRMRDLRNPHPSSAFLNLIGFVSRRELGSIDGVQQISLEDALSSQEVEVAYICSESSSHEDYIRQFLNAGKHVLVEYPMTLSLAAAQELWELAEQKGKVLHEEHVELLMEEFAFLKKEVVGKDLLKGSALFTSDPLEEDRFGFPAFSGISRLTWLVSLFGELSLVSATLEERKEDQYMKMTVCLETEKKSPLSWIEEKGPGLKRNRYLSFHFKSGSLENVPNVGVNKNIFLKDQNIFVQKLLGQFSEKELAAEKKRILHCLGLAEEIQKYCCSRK
Experimental: as §1, §2

[4] = molecular target: T4, hBVR L157A (Homo sapiens, UniProt P53004 SEQ:1-296, L157A); experiment: EMSA; background signal only; settings: tags: rabbit reticulocyte lysate; chain copies: 2; label: 32P 5'
T4 sequence: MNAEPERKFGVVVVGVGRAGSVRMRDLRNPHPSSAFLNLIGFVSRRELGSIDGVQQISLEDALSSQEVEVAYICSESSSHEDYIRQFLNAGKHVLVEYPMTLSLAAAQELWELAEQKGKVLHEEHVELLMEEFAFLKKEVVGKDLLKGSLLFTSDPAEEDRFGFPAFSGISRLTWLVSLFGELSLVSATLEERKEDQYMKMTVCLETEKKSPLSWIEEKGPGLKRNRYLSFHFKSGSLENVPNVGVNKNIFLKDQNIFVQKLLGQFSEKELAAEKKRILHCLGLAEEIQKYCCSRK
Experimental: as §1, §2

Measured: binding result

B1: 100-mer, zero AP-1 sites (OL.625/OL.626) (dsDNA)
DNA 1: TCCTCAGCTGCTTTTATGCGATCCTCTGGTTGGGAGGGGTGATTAGCAGACAAAGGGAAGACAGATTTTGCGATCCTCCCCTCTGTTCCCTCTGCCTCAG
DNA 2: CTGAGGCAGAGGGAACAGAGGGGAGGATCGCAAAATCTGTCTTCCCTTTGTCTGCTAATCACCCCTCCCAACCAGAGGATCGCATAAAAGCAGCTGAGGA
no binding: [1] | [2] | [3] | [4]
